# According to paper PMC7596504, “Molecular mechanism of the MORC4 ATPase activation” (Nature Communications, 2020):
# “Also recorded” adds a separate entry of the source.
# B1: MORC4 E56A: mCherry-tagged full-length MORC4 E56A mutant, catalytically impaired ATPase domain (protein, UniProt Q8TE76 1-937, looked up, variant E56A)
# chain: MLLYRGAPAGPGAPGCGLARPGGGPQAFGIRLSTMSPRYLQSNSSSHTRPFSAIAALLDNAVDPDVSARTVFIDVEEVKNKSCLTFTDDGCGMTPHKLHRMLSFGFTDKVIKKSQCPIGVFGNGFKSGSMRLGKDALVFTKNGGTLTVGLLSQTYLECVQAQAVIVPIVPFNQQNKKMIITEDSLPSLEAILNYSIFNRENDLLAQFDAIPGKKGTRVLIWNIRRNKNGKSELDFDTDQYDILVSDFDTEEKMTGGVTSELPETEYSLRAFCGILYMKPRMKIFLRQKKVTTQMIAKSLANVEYDTYKPTFTNKQVRITFGFSCKNSNQFGIMMYHNNRLIKSFEKVGCQVKPTRGEGVGVIGVIECNFLKPAYNKQDFEYTKEYRLTINALAQKLNAYWKEKTSQDNFETSTVARPIPKVPDQTWVQCDECLKWRKLPGKIDPSMLPARWFCYYNSHPKYRRCSVPEEQELTDEDLCLSKAKKQEQTVEEKKKMPMENENHQVFSNPPKILTVQEMAGLNNKTIGYEGIHSPSVLPSGGEESRSPSLQLKPLDSSVLQFSSKYKWILGEEPVEKRRRLQNEMTTPSLDYSMPAPYRRVEAPVAYPEGENSHDKSSSERSTPPYLFPEYPEASKNTGQNREVSILYPGAKDQRQGSLLPEELEDQMPRLVAEESNRGSTTINKEEVNKGPFVAVVGVAKGVRDSGAPIQLIPFNREELAERRKAVESWNPVPYSVASAAIPAAAIGEKARGYEESEGHNTPKLKNQRELEELKRTTEKLERVLAERNLFQQKVEELEQERNHWQSEFKKVQHELVIYSTQEAEGLYWSKKHMGYRQAEFQILKAELERTKEEKQELKEKLKETETHLEMLQKAQVSYRTPEGDDLERALAKLTRLRIHVSYLLTSVLPHLELREIGYDSEQVDGILYTVLEANHILD
# modifications: full-length mCherry tag
# Columns and labels:
# [1] = system: HEK293T cells; experiment: MORC4 localization and nuclear bodies (confocal microscopy); type: cell-based; details: 127 cells quantified
# Method: WT mCherry-MORC4, mCherry-MORC4 E56A, mCherry-MORC4 W435A, mCherry-MORC4 E56A/W435A, mCherry-MORC4 K460A/R462A/R463A, or mCherry control plasmid were transfected into 2 million 293T-HEK cells seeded on 25 mm circular coverslips (Carolina Biological Supply Item#: 633057) in 10-cm-diameter tissue culture dish by Lipofectamine 3000 (Life Technology, L3000-075) following the manufacturer’s instructions. Two days after transfection, cells were stained with Hoechst […] for 30 min and imaged live on a ZeissAxiovert 200 M inverted microscope fitted with a ×40 oil objective. Images were acquired with Slidebook 6 software and exported for analysis in Image J.
# mCherry foci sizes were calculated using ImageJ image processing program (version 1.51) using the Analyze Particle tool. mCherry particle sizes were collected for MORC4 WT and MORC4 W435A transfected cells. Data were plotted with R (version 3.4.1) using ggplot2 (version 3.2.1). Cell size and mCherry foci count per cell were calculated using CellProfile cell image analysis software (version 3.1.5) to identify nuclei and mCherry foci, relate mCherry foci to nuclei containing them and measure the size of nuclei and number mCherry foci contained. Data were plotted with R (version 3.4.1) using ggplot2 (version 3.2.1).
# [2] = system: MORC4; experiment: ATPase activity assay (EnzChek Phosphate Assay Kit); type: biochemical, human; details: listed as E56A mutant of MORC4
# Method: To determine whether MORC4 is catalytically active, we produced the ATPase domain of human MORC4 and examined its ability to hydrolyze ATP in enzymatic assays (Fig. 1a–c). Following incubation of the ATPase domain with ATP, 2-amino-6-mercapto-7-methylpurine ribonucleoside and nucleoside phosphorylase, the release of inorganic phosphate generated by the hydrolysis of ATP to ADP was monitored by measuring an increase in absorbance at 360 nm.
# The ATPase assays were performed using the EnzChek Phosphate Assay Kit (Invitrogen, item # E6646). The reactions were carried out on 1.0 µM of MORC4 His-ATPase or ATPaseCW (WT and mutants), in the presence and absence of 1 µM 601 DNA or 50 µM of unmodified H3 or H3K4me3 peptide (aa 1–12 of H3) in a buffer containing 50 mM Tris-HCl (pH 7.5), 150 mM NaCl, 1 mM MgCl2, 0.1 mM sodium azide, 200 µM MESG, and 1 U of PNP. In assay with the nucleosome, 0.5 µM of MORC4 ATPaseCW and 0.5 µM NCP167 (Activemotif) were used. The reaction was started by adding 2 mM ATP to the mixture at room temperature, and the release of inorganic phosphate was monitored by measuring the absorbance at 360 nm on a Nanodrop 2000c spectrophotometer (Thermo Scientific). In the presence of inorganic phosphate, produced by the hydrolysis of ATP to ADP, MESG is enzymatically converted to ribose 1-phosphate and […] by PNP, resulting in a shift in the wavelength absorbance from 330 nm for MESG to 360 nm for the product. The rate of ATP self-hydrolysis was measured in parallel. Error was calculated as the S.D. of at least three separate experiments (two in Fig. 4j).
# [3] = system: HEK293T cells; experiment: Cell cycle analysis by flow cytometry; type: cell-based; details: 48-h overexpression of mCherry-tagged protein, EdU/PI; average of three independent experiments; control 34.5%
# Method: For DNA content analysis, 10^6 cells previously transfected with mCherry MORC4 constructs and labeled with 25 µM Ethynyl deoxyUridine (EdU) for 1 h in 100 µL were washed with PBS (NaCl 137 mM, KCl 2.7 mM, Na2HPO4 10 mM, KH2PO4 1.8 mM) and fixed in ice cold 70% ethanol overnight. Fixed cells were washed and resuspended in PBS containing 0.05% NP40 and incubated at room temperature for 30 min. Cells were again washed with PBS. Cells were resuspended in Alexa Fluor 647 click staining solution (100 mM Tris pH 7.6, 4 mM CuSO4, 3 µM AF647 azide, 100 mM Sodium Ascorbate) for 1 h. Following staining, cells were washed with PBS and then stained for total DNA content using 10 μg/mL propidium iodide (PI) and 0.2 mg/ml RNase A for 60 min before analysis on a FACScan instrument. Data were analyzed using FlowJo (Version 10) with cells gated to remove doublets. EdU vs PI plots were gated in quadrants to identify G1, early S, late S and G2/M cells. S phase fractions were summed for total S phase population. […]
# [4] = system: 601 DNA; experiment: EMSA with 601 DNA; type: binding; details: 147 bp 601 DNA 5 pmol, pH 7.5, 150 mM NaCl, 0.5 h on ice, listed as E56A mutant of MORC4
# Method: EMSA experiments were performed essentially as described. In brief, increasing amounts of WT or mutant CW or ATPaseCW cassette of MORC4 were incubated with 147 bp 601 DNA (5 pmol) or 50 ng of O’RangeRuler 5 bp ladder (Thermo Scientific) in a DNA-binding buffer containing 20 mM Tris-HCl (pH 7.5), 150 mM NaCl, 2.5 mM MgCl2, and 2 mM DTT for 0.5 h on ice. The reaction mixtures were loaded on 5% native polyacrylamide gels, and electrophoresis was performed in 0.2× Tris-borate-EDTA (TBE) buffer at 100 V for 1.2 h on ice. Gels were stained with SYBR Gold (Invitrogen).
molecule,measurement,setting,value
B1,number of NBs compared to wild type,[1],significant increase in number of mCherry foci per cell
same,size of NBs compared to wild type,[1],significant decrease in mCherry foci size
same,number of NBs compared to wild type,[1]; listed as E56A mutant of MORC4,notable increase in the number of NBs
same,size of NBs compared to wild type,[1]; listed as E56A mutant of MORC4,decrease in the size of NBs
same,catalytic (ATPase) activity of the protein,[2],catalytically impaired ATPase domain; also recorded: catalytically inactive
same,percent of cells in S phase,[3],36.3%
same,binding to 601 DNA,[4],retains its DNA-binding activity; also recorded: binds DNA as WT MORC4
